Patent US20170173114A1, “METHODS AND COMPOSITIONS FOR INDUCTION OF UCP1 EXPRESSION” (Joslin Diabetes Center, Inc., priority 2014, published 2017)

Columns and labels:
[1] = test system: 3T3-F442A white preadipocytes; test: 2-deoxy-[3H]glucose uptake in 3T3-F442A white preadipocytes; format: cell-based; settings: FGF6 overexpressing vs control and EGF
Procedure: The following glucose uptake assay was used to determine whether FGF6 could impact cellular glucose uptake. Specifically, glucose uptake was monitored in WT-1 brown preadipocytes and 3T3-F442A white preadipocytes in the presence or absence of FGF6. After serum starvation in DMEM/H medium containing 1% of BSA for 2-3 h, cells were washed with HEPES buffer and then incubated with or without 100 nM insulin for 30 min in DMEM/H medium containing 1% of BSA. Glucose transport was determined by the addition of 2-deoxy-[3H]glucose (0.1 mM, 0.5 μCi/mL; PerkinElmer Life and Analytical Science, Waltham, Mass.). After 5 minutes of incubation, the reaction was stopped by ice-cold PBS and cells were washed twice with ice-cold PBS. Cells were then lysed in 0.1% SDS, and glucose uptake was assessed in 4 mL of scintillant using Beckman LS6500 scintillation counter (Beckman Coulter, Indianapolis Ind.). Nonspecific 2-deoxy-[3H]glucose uptake was measured in the presence of cytochalasin B (20 μM) and was subtracted from the total uptake to get specific glucose uptake. Results were expressed as the mean±s.e.m. of the indicated number of experiments. The protein content was determined by the Bradford method.

UCP1 protein = UCP1 protein in WT-1 cells (immunofluorescent staining, Western blot); format: cell-based, murine; settings: for UCP1 protein, immunofluorescent staining: relative to control cells
Procedure: Cells were harvested in lysis buffer (50 mM HEPES, 137 mM NaCl, 1 mM MgCl2, 1 mM CaCl2, 10 mM Na2P2O7, 10 mM NaF, 2 mM EDTA, 10% glycerol, 1% Igepal CA-630, 2 mM vanadate, 10 μg/ml of leupeptin, 10 μg/ml of aprotinin, 2 mM phenylmethylsulfonyl fluoride; pH 7.4). After lysis, lysates were clarified by centrifugation at 12,000×g for 20 min at 4° C., the amount of protein in the supernatants was determined by the Bradford Protein Assay (Bio-Rad Laboratories, Hercules, Calif.). Proteins were directly solubilized in Laemmli sample buffer. Equal amounts of lysates were separated by sodium dodecyl sulfate-polyacrylamide gel electrophoresis and transferred to Immobolin-P membranes. Membranes were blocked overnight at 4° C. and incubated with the indicated antibody for 2 hours at room temperature. Specifically bound primary antibodies were detected with peroxidase-coupled secondary antibody and enhanced chemiluminescence (ECL, Amersham Biosciences, Piscataway, N.J.).
The effect of FGF6 on differentiation of WT-1 murine brown preadipocytes was also examined. WT-1 cells can be induced to undergo brown adipocyte differentiation, characterized by lipid accumulation and expression of adipogenic and brown fat markers, as described above (Klein et al. (1999) J Biol Chem 274:34795; Tseng et al. (2005) Nat Cell Biol 7:601). WT-1 cells were treated with FGF6 in growth media (DMEM+10% FBS), a vehicle control (“control” or “C” referred to in FIGS. 3A-D), or induction media (“induction” or “I” referred to in FIGS. 3A-D) as described above for seven days. Following the treatment, cells were examined for the color of the culture media in combination with oil Red O staining, expression of adipogenic markers, expression of brown fat markers, immunofluorescent staining of cells with UCP1 and DPAI, and Western blot analysis to determine the presence of UCP1 and β-tubulin. The results are described in FIGS. 3A to 3D.
FGF2, FGF6 and FGF9 were used at a dosage of 200 ng/mL. Cells were stained using immunofluorescent stains for UCP1 and DAPI (which binds to DNA).

UCP1 = UCP1 expression in immortalized human brown fat progenitors; format: cell-based
Procedure: Primary stromal-vascular fraction (SVF) from human neck fat was isolated as described previously (Cannon and Nedergaard, Physiol Rev, 84: 277-359, 2004). Briefly, freshly resected superficial fat (pooled subcutaneous and subplatysmal) and fat located in the deeper neck regions (pooled carotid sheath, longus colli and prevertebral) were collected, minced and digested using collagenase 1 (2 mg/mL in PBS with the addition of 3.5% BSA; Worthington Biochemical Corporation, Lakewood, N.J.), and the SVF was isolated. SVF cells were plated and grown in high glucose Dulbecco's modified Eagle's medium (DMEM/H) supplemented with 10% (v/v) fetal bovine serum (FBS) and 1% penicillin/streptomycin. For adipocyte differentiation, cells were grown to confluent for 6 days (day 6) and then exposed to adipogenic induction mixture in DMEM/H medium containing isobutylmethylxanthine (0.5 mM), dexamethasone (0.1 μM), human insulin (0.5 μM; Roche Applied Science, Indianapolis, Ind.), T3 (2 nM), indomethacin (30 μM), pantothenate (17 μM), biotin (33 μM) and 2% FBS for another 12 days (referred as day 18). Induction medium was changed every 3 days until collected.
Primary SVF cells were immortalized with human telomere reverse transcriptase (hTERT) as described previously (Tchkonia, T., et al. Diabetes 55, 2571-2578, 2006). […]

B1: FGF6: fibroblast growth factor 6; recombinant human FGF from R&D Systems, or mouse FGF6 cDNA overexpressed by lentiviral vector (protein)
chain: KRQRRLYCNVGIGFHLQVLPDGRISGTHEENPYSLLEISTVERGVVSLFGVRSALFVAMNSKGRLYATPSFQEECKFRETLLPNNYNAYESDLYQGTYIALSKYGRVKRGSKVSPIMTVTHFLPRI
glucose uptake level in F442A (white) preadipocytes [1]: increased | UCP1 protein, immunofluorescent staining (UCP1 protein; WT-1, 200 ng/mL with insulin 20 nM and T3 1 nM): significant levels of staining | UCP1 protein, Western blot (UCP1 protein; WT-1, seven days): present | UCP1 protein, immunofluorescent staining (UCP1 protein; WT-1, seven days): significant levels of staining | increase in UCP1 expression in human brown fat precursors (UCP1): ~60 fold
